Assay results published in patent EP4596580A1 (Staidson (Beijing) Biopharmaceuticals Co., Ltd., dated 2025).
Read-outs that look alike come from different tables or passages of the source.

T1: His-human LIGHT (human)
T1 construct: also called His-huLIGHT; free LIGHT
T1 chain: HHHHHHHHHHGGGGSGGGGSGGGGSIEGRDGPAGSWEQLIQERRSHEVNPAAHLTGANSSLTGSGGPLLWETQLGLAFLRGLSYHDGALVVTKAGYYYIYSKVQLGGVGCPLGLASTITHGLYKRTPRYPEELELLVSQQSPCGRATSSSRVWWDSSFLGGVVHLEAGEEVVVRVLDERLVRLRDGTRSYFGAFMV

T2: His-cynomolgus monkey LIGHT (cynomolgus monkey)
T2 construct: also called His-cynoLIGHT
T2 chain: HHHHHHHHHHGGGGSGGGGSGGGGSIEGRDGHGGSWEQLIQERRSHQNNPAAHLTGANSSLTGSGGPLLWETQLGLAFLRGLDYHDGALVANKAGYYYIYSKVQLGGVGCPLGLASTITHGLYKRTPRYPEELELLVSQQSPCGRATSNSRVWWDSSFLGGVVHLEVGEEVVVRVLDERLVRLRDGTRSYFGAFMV

T3: His-mouse LIGHT (mouse)
T3 construct: also called His-musLIGHT
T3 chain: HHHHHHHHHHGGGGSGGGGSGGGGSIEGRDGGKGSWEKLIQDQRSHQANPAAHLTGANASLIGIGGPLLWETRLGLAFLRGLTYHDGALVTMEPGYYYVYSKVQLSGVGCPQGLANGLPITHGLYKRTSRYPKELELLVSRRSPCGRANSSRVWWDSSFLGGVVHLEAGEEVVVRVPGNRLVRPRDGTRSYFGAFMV


What was measured:
His-human LIGHT [1] = molecular target: T1, His-human LIGHT; assay: ELISA, His-huLIGHT coated
[2] = molecular target: T4, LIGHT on the surface of HEK293-LIGHT stable cells (human, UniProt O43557 1-240); assay: cell-based or functional assay
hFc-human LIGHT [3] = molecular target: T5, hFc-human LIGHT (human); assay: competition ELISA, LTβR-His coated, hFc-huLIGHT added
T5 construct: also called hFc-huLIGHT

His-human LIGHT [4] = molecular target: T1, His-human LIGHT; assay: cell-based or functional assay
His-human LIGHT [5] = molecular target: T1, His-human LIGHT; assay: cell-based or functional assay
[6] = molecular target: T2, His-cynomolgus monkey LIGHT; assay: ELISA, His-cynoLIGHT coated
His-human LIGHT [7] = molecular target: T1, His-human LIGHT; assay: cell-based or functional assay
His-human LIGHT [8] = molecular target: T1, His-human LIGHT; assay: cell-based or functional assay
His-human LIGHT [9] = molecular target: T1, His-human LIGHT; assay: ELISA, His-huLIGHT coated
His-mouse LIGHT = molecular target: T3, His-mouse LIGHT; assay: ELISA, His-musLIGHT coated
hFc-human LIGHT [10] = molecular target: T5, hFc-human LIGHT; assay: competition ELISA, LTβR-His coated, hFc-huLIGHT added; remark: listed apart in the source
[11] = molecular target: T4, LIGHT on the surface of HEK293-LIGHT …; assay: cell-based or functional assay; remark: listed apart in the source
[12] = molecular target: T2, His-cynomolgus monkey LIGHT; assay: ELISA, His-cynoLIGHT coated

Binder	EC50 (His-human LIGHT [1])	IC50, LTβR NF-κB luciferase reporter, HEK293-LIGHT cells [2]	IC50 (hFc-human LIGHT [3])	IC50, HVEM NF-κB luciferase reporter, free LIGHT (His-human LIGHT [4])	IC50, LTβR NF-κB luciferase reporter, free LIGHT (His-human LIGHT [5])	EC50 [6]	IC50, LTβR NF-κB luciferase reporter, free LIGHT (His-human LIGHT [7])	IC50, HVEM NF-κB luciferase reporter, free LIGHT (His-human LIGHT [8])	EC50 (His-human LIGHT [9])	binding result (His-mouse LIGHT)	IC50 (hFc-human LIGHT [10])	IC50, LTβR NF-κB luciferase reporter, HEK293-LIGHT cells [11]	EC50 [12]
hum_LT-m58-1 (antibody, human IgG4, V domains shown, humanized from LT-m58) VH: QVQLVQSGAEVKKPGASVKVSCKASGYTFIDHIMNWVRKAPGQGLEWMGRIYPVSGETNYNQKFMGRATFTVDRSTSTVYMELSSLRSEDTAVYYCGRGSYYWNAMDYWGQGTLVTVSS VL: EIVMTQSPATLSVSPGERATLSCKASQSVDFDGDSYMNWYQQKPGQPPRLLIYSASNLESGIPARFSGSGSGTEFTLTISSLQSEDFAVYYCQQSIEDPWTFGQGTKLEIK	14.1 pM	8060 pM	291 pM	93.3 pM	183 pM	–	–	–	–	–	–	–	–
hum_LT-m85-3 (antibody, human IgG4, V domains shown, humanized from LT-m85) VH: QVQLVQSGAEVKKPGASVKVSCKASGYTFTSYNVHWVRQAPGQGLEWIGAVYPGNGDTSYNQKFKGRATLTADKSTSTVYMELSSLRSEDTAVYYCARGSYYYTSSYFDHWGQGTLVTVSS VL: EIVMTQSPATLSVSPGERATLSCKASQSVDFDGDSYMNWYQQKPGQPPRLLIYTASNLESGIPARFSGSGSGTEFTLTISSLQSEDFAVYYCQQSYEDPFTFGQGTKLEIK	–	–	–	–	–	15.5 pM	159 pM	564 pM	8.69 pM	no binding	282 pM	4680 pM	–

Next, values leading:

EC50 (His-human LIGHT [1])	IC50, LTβR NF-κB luciferase reporter, HEK293-LIGHT cells [2]	IC50 (hFc-human LIGHT [3])	IC50, HVEM NF-κB luciferase reporter, free LIGHT (His-human LIGHT [4])	IC50, LTβR NF-κB luciferase reporter, free LIGHT (His-human LIGHT [5])	EC50 [6]	IC50, LTβR NF-κB luciferase reporter, free LIGHT (His-human LIGHT [7])	IC50, HVEM NF-κB luciferase reporter, free LIGHT (His-human LIGHT [8])	EC50 (His-human LIGHT [9])	binding result (His-mouse LIGHT)	IC50 (hFc-human LIGHT [10])	IC50, LTβR NF-κB luciferase reporter, HEK293-LIGHT cells [11]	EC50 [12]	Binder
30.5 pM	–	746 pM	–	–	–	–	–	–	no binding	–	–	4.43 pM	hum_LT-m58-5 (antibody, human IgG4, V domains shown, humanized from LT-m58) VH: QVQLVQSGAEVKKPGASVKVSCKASGYTFIDHIMNWVRKAPGQGLEWIGRIYPVSGETNYNQKFMGRVTFTVDRSTSTVYMELSSLRSEDTAVYYCGRGSYYWNAMDYWGQGTLVTVSS VL: EIVMTQSPATLSVSPGERATLSCKASQSVDFDGESYMNWYQQKPGQAPRLLIYSASNLESGIPARFSGSGSGTEFTLTISSLQSEDFAVYYCQQSIEDPWTFGQGTKVEIK
34.9 pM	–	628 pM	–	–	–	–	–	–	no binding	–	–	2.58 pM	hum_LT-m58-6 (antibody, human IgG4, V domains shown, humanized from LT-m58) VH: QVQLVQSGAEVKKPGASVKVSCKASGYTFIDHIMNWVRKAPGQGLEWMGRIYPVSGETNYNQKFMGRATFTVDRSTSTVYMELSSLRSEDTAVYYCGRGSYYWNAMDYWGQGTLVTVSS VL: DIVMTQSPDSLAVSLGERATINCKASQSVDFDGESYMNWYQQKPGQPPKLLIYSASNLESGVPDRFSGSGSGTDFTLTISSLQAEDVAVYYCQQSIEDPWTFGQGTKVEIK
–	–	–	–	–	14.2 pM	61.3 pM	209 pM	13.1 pM	no binding	265 pM	6020 pM	–	hum_LT-m85-2 (antibody, human IgG4, V domains shown, humanized from LT-m85) VH: QVQLVQSGAEVKKPGASVKVSCKASGYTFTSYNVHWVRQAPGQGLEWMGAVYPGNGDTSYNQKFKGRATLTADKSTSTAYMELSSLRSEDTAVYYCARGSYYYTSSYFDHWGQGTLVTVSS VL: EIVMTQSPATLSVSPGERATLSCKASQSVDFDGDSYMNWYQQKPGQPPRLLIYTASNLESGIPARFSGSGSGTEFTLTISSLQSEDFAVYYCQQSYEDPFTFGQGTKLEIK
